Results from the supplement of paper PMC9170038.

Tested on: MS2 coat protein
Test: apparent KD of MS2 coat protein; higher = weaker reporter binding
Conditions: Eterna round: R107
Method: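 RNA-MaP round R107: designed RNA switches with theophylline, tryptophan, arginine or FMN aptamers are transcribed on-chip within common flanks. They are titrated with SNAP-549-labelled MS2 coat protein in RNA-MaP buffer (100 mM Tris pH 7.5, 80 mM KCl, 4 mM MgCl2), without ligand or with the indicated ligand. Median apparent KD per design.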

[1] = input ligand: theophylline 20 uM
[2] = input ligand: theophylline 2 mM
[3] = input ligand: tryptophan 2.4 mM

Sequence | apparent KD of MS2 coat protein (input ligand: arginine 13.2 mM) [nM] | apparent KD of MS2 coat protein (input ligand: none) [nM] | apparent KD of MS2 coat protein [1] [nM] | apparent KD of MS2 coat protein [2] [nM] | apparent KD of MS2 coat protein [3] [nM]
GGAGGUACCCGAAGGAGCGACAUGAGGAUCACCCAUGUCUCCCGUUAUGGGAGUUCUUUAGGUCAGGUAGGUCGCGGGUACCUCC [#1 Exclusion - Arginine B Attempt #2 (Inspired by Omei)] | 79.3 | 97.7 | 114 | 202 | 97
UUCUUUAAGUCGGCCGCCACUGAAACAUGAGGAUCACCCAUGUAUAUUUGGGUAUAGGUGGAUUACAGGACCGGGACUAUAGUAA [JR_ExcTryptoB_Sub022] | 31.2 | 66.1 | 72.3 | 104 | 79.6
GGUUGGUCCUCACAUGAGGAUCACCCAUGUCGAGGACCGGUACGGCCGCCACUCGAUUGUACCAGGGCUUAAGAGCCUAUGAGCA [Erenedquce] | 12.6 |  | 23.9 | 17.6 | 
AGACAUGUAGGAUAAUUGACUAUUACAGAUACCAGACUGUCUAAUGUCCCUUGGCAGCUGCAUUACAUGAGGAUCACCCAUGUUA [JR_ExcTheophyA_Sub012] | 16.5 |  | 22.7 |  | 20.4
ACAUGAGGAUCACCCAUGUGCAUCACCCGACGAGGACCGGUACGGCCGCCACUCGGGUAUAUAUUUACAUCGGGUGAUUUUACGU [#24 Tryptophan A Same State] | 29.1 |  | 55.9 | 51.8 | 
AACAUGAGGAUCACCCAUGUACAUUUCGAUCGAGGACCGGUACGGCCGCCACUCGAAAACAUGAGGAUCACCCAUGUUCAACAGG [Tryp A SS t4] | 65 |  | 336 | 390 | 
AAAAUCCUACCUGAGGAUCACCCUGGUGAAGGAGCGCCCGAAAGGGCAGGUAGGUCGCACCUGAGGAUCACCCUGGUAAACCUAA [ArgEX 24 #DoubleMS2 #OpenEnded] | 31.6 | 51.4 | 40.3 | 44.9 | 46.3
AUAGUUAUCAGAAGGAGCGUCAUUAACAUGAGGAUCACCCAUGUAACAUUGAAUUCGAUGAGACAGGUAGGUCGCUGAAUAUUAA [SS-ArgB28] | 32.3 | 39.6 | 48 | 41.7 | 36
UAUAUAGAUGGACGUCAUAUAGAUGCAGAAGGAGCGUAGGAAACUACAGGUAGGUCGCUGAGGUACAUGAGGAUCACCCAUGUAG [SSArg A #19 Slice of Pi] | 34.3 | 26.5 | 38 | 37.9 | 20.9
GUUGGUUUGCGAAGGAGCGGGUAUGUUGUCUACUGGAUCCUAACAUGAGGAUCACCCAUGUCCCAGGUAGGUCGCGCGGGCUUUG [12.aB] | 34.1 | 28.3 | 56.3 | 52.2 | 38.2
AAUAACAUGAGGAUCACCCAUGUAAAAGAUACCAGAGUGAUGAUCCUCCCUUGGCAGCUUAAAACGCUAUUGGAAACAAUAGCGA [Mat - Same State Theophlline A - Mod of Eli - D5] | 48.8 |  | 179 |  | 74
AAUACAGUGUCGGCCGCCACUGAAACAUGACAUGAGACAUGAGGAUCACCCAUGUACAUAAUAAACAGGACCGGGACCCAUGUAU [Same State Tryptophan B] | 28.9 |  | 42.4 | 42.5 | 
AAACUGGGUGUAAAAUAAAUAAUCACUGAUACCAGACUAUAGUAUGUCCCUUGGCAGCAGAAACAUGAGGAUCACCCAUGUAAUA [JR_Nu_ExcTheophyA_Sub024] | 22.3 |  | 23 |  | 25.2
GCUAGGUCUACGGCCGCCACUAGACGUGGGUUUAACAUGAGGAUCACCCAUGUGCUACAGGCGCAUAGGACCGGGUAGACCUAGC [SSTB NP+V+V2 #10 +-Same Structure] | 532 | 414 | 713 | 928 | 51.3
GCUGUAAGUGCAGAUACCAGCAAGUGAUAUUUCAUAUGACAUGAGGAUCACCCAUGUAACUGCCCUUGGCAGCUGCACUUACAGC [SSTHB #10] | 114 |  | 122 |  | 241
GAUACGCAGUCGGCCGCCACUUGCUAAGGUGACAAACCAAAACAUGAGGAUCACCCAUGUCUGAUAAGGACCGGGACCACCAUGG [theeternabot_sameState_MS2_Trp_B_14] | 69.7 |  | 124 | 129 | 
GGCGGACUUAUAGAUACCAGCACAUGAGGAUCACCCAUGUAUGGUCGCACCUCAGUCCUGUGCCCUUGGCAGCUAUAAUAGAUUU [Esxeanbi] | 20.8 |  | 49.8 |  | 16.4
AUCGGGCCUUUAGAACCGCCGUUCCCACCUCGAGGACCGGUACGGCCGCCACUCGGGUGACAUGAGGAUCACCCAUGUGGACGAA [Gexebidive] | 31 | 181 | 432 | 737 | 284
